# Data taken from PMC2255029, “UV-A-induced structural and functional changes in human lens deamidated αB-crystallin” (Molecular Vision, 2008).
# Molecular target: the molecule itself
# Experiment: cross-linking; UV-A irradiation (320-400 nm; 20 and 50 J/cm^2, about 5 °C, 50 mM phosphate buffer, pH 7.5) of the purified protein, then SDS-PAGE after treatment with 150 mM β-mercaptoethanol; 40 kDa species
row,Protein,stoichiometry N
1,"wild type (WT) αB-crystallin (natural protein, human, UniProt P02511 1-175, looked up, αB-crystallin, human, 175 amino acid residues; cDNA cloned in plasmid pDIRECT; Oligomer; Also used after UV-A exposure (320-400 nm; 20 or 50 J/cm^2), which oxidises Met and/or Trp residues and partly degrades the protein; source: E. coli BL21 (DE3) pLysS, purified (DEAE-Sephacel, Butyl-Sepharose, size-exclusion HPLC)) MDIAIHHPWIRRPFFPFHSPSRLFDQFFGEHLLESDLFPTSTSLSPFYLRPPSFLRAPSWFDTGLSEMRLEKDRFSVNLDVKHFSPEELKVKVLGDVIEVHGKHEERQDEHGFISREFHRKYRIPADVDPLTITSSLSSDGVLTVNGPRKQVSGPERTIPITREEKPAVTAAPKK",2
2,"αB-Asn146Asp deamidated mutant protein (natural protein, human, UniProt P02511 1-175, looked up, αB-crystallin, human, 175 amino acid residues; cDNA cloned in plasmid pDIRECT; Asn146 changed to Asp by site-directed mutagenesis; Mimics deamidation of Asn146; Also used after UV-A exposure; source: E. coli BL21 (DE3) pLysS, purified (DEAE-Sephacel, Butyl-Sepharose, size-exclusion HPLC)) MDIAIHHPWIRRPFFPFHSPSRLFDQFFGEHLLESDLFPTSTSLSPFYLRPPSFLRAPSWFDTGLSEMRLEKDRFSVNLDVKHFSPEELKVKVLGDVIEVHGKHEERQDEHGFISREFHRKYRIPADVDPLTITSSLSSDGVLTVDGPRKQVSGPERTIPITREEKPAVTAAPKK",2
3,"αB-Asn78Asp deamidated mutant protein (natural protein, human, UniProt P02511 1-175, looked up, αB-crystallin, human, 175 amino acid residues; cDNA cloned in plasmid pDIRECT; Asn78 changed to Asp by site-directed mutagenesis; Mimics deamidation of Asn78; Also used after UV-A exposure; source: E. coli BL21 (DE3) pLysS, purified (DEAE-Sephacel, Butyl-Sepharose, size-exclusion HPLC)) MDIAIHHPWIRRPFFPFHSPSRLFDQFFGEHLLESDLFPTSTSLSPFYLRPPSFLRAPSWFDTGLSEMRLEKDRFSVDLDVKHFSPEELKVKVLGDVIEVHGKHEERQDEHGFISREFHRKYRIPADVDPLTITSSLSSDGVLTVNGPRKQVSGPERTIPITREEKPAVTAAPKK",2
4,"αB-Asn78/146Asp deamidated double mutant protein (natural protein, human, UniProt P02511 1-175, looked up, αB-crystallin, human, 175 amino acid residues; cDNA cloned in plasmid pDIRECT; both Asn78 and Asn146 changed to Asp by site-directed mutagenesis; Mimics deamidation of Asn78 and Asn146; Also used after UV-A exposure; source: E. coli BL21 (DE3) pLysS, purified (DEAE-Sephacel, Butyl-Sepharose, size-exclusion HPLC)) MDIAIHHPWIRRPFFPFHSPSRLFDQFFGEHLLESDLFPTSTSLSPFYLRPPSFLRAPSWFDTGLSEMRLEKDRFSVDLDVKHFSPEELKVKVLGDVIEVHGKHEERQDEHGFISREFHRKYRIPADVDPLTITSSLSSDGVLTVDGPRKQVSGPERTIPITREEKPAVTAAPKK",2
